For eight substances, Kd results are on record in paper PMC5394680.

This assay has as its target Alexa488-labeled H3-H4 dimer (UniProt P84233). The experiment in a line: fluorescence polarisation; 5 nM Alexa488-labeled H3-H4 dimer with increasing amounts of CAF-1; 25 mM TRIS pH 7.5, 300 mM NaCl, 5% glycerol, 1 mM EDTA, 0.01% NP-40, 0.01% CHAPS, 1 mM DTT. Background: In fluorescence polarisation assays a small probe gives low polarisation when free and higher when bound to something large.

As for “Cac2 (middle subunit of yeast CAF-1), C-terminal His-tag (from UniProt Q04199 1-449) (natural protein)”, the Kd (in general, the equilibrium constant for the complex coming apart) is greater than 1000 nM. With “Cac3 (small subunit of yeast CAF-1) (from UniProt P13712 1-422) (natural protein)”, the Kd stood at 77 nM. Substance “full-length (FL) yeast CAF-1 complex (from UniProt Q12495 1-606; Q04199 1-449; P13712 1-422)” returned a dissociation constant Kd of 0.3 nM. “tCAF-1 (tCac1 233-606 with Cac2 and Cac3) (from UniProt Q12495 233-606; Q04199 1-449; P13712 1-422) (complex)”: the Kd was 0.5 nM. The same measure for “tCAF_Nac (trimeric tCAF-1 with the acidic region of Cac1 replaced by a neutral Gly-Ser-Leu peptide) (from UniProt Q12495 233-606; Q04199 1-449; P13712 1-422) (complex)”: 8 nM; for “tCAF_∆2 (tCAF-1 sub-complex lacking the middle subunit Cac2) (from UniProt Q12495 233-606; P13712 1-422)”: 25 nM; for “tCAF_∆3 (tCAF-1 sub-complex lacking the small subunit Cac3) (from UniProt Q12495 233-606; Q04199 1-449)”: 1.3 nM. “tCAF_∆ac (trimeric tCAF-1 with the acidic region of Cac1 deleted) (from UniProt Q12495 233-606; Q04199 1-449; P13712 1-422) (complex)” came in with a dissociation constant (Kd) of 60 nM.
